Source: patent US20240076315A1, “KHL POLYPEPTIDE, AND USE THEREOF IN PREPARATION OF TABP-EIC CELL” (priority 2021, published 2024)
No end group written: not given here.

Tests used:
PSMA = PSMA (Homo sapiens, UniProt Q04609); experiment: Phage display peptide library (Ph.D.-12) screening for peptide binding to PSMA; conditions: three rounds of panning, Ph.D.-12 phage display library
Experimental: The present disclosure uses the Ph.D.-12 phage display peptide library kit to screen peptide KHL that specifically binds to PSMA.
Random twelve peptide phage display library: 100 μL. 1.5×10^13 pfu/mL, stored in TBS solution containing 50% glycerol, complexity-2.7×10^9 transformants-28gIII sequencing primers: 5′-HOGATTGGGATTTGCTAACAAC-3′, 100 pmol, 1 pmol/μL-96 g III sequencing primer: 5′-HOCCTCATATAGTTAGCGTAGCGTAACG-3′, 100 pmol/1 pmol/μL; E. Coli ER2738 Host bacterium F′laclq Δ(lacZ) M15 proA+B+zzf:: Tn10 (TetR)/fhuA2 supE thi Δ(lac proAB) Δ(hsdMS mcrB) 5 (rk mk McrBC−): This strain is provided in the form of a bacterial culture containing 50% glycerol, non receptive cells, and stored at −70° C.; Streptavidin, freeze-dried powder 1.5 mg; Biotin: 10 mM 100 μL.
Depending on the number and types of target molecules that need to be simultaneously selected for library selection, the selection experiment is conducted on a single sterilized polystyrene culture dish, 12 or 24 well plates, and 96 well microplates. Each target molecule is coated with at least one plate (or well), and the amount given in the following method is the amount of the 60×15 mm culture dish, the content in parentheses is the amount of the plate, and the dosage of microplate is adjusted accordingly for other medium-sized wells. However, in each case, the number of added bacteriophages is the same: 1.5×10^11 virion. […]

[1] = biological target: T1, cell surface antigen PSMA (Homo sapiens, UniProt Q04609); experiment: Immunofluorescence detection of KHL peptide (FITC marker) on Lncap cell line; type: binding
T1 construct: endogenous in cells; host or cells: Lncap cells (PC3 cells as low-PSMA control)
T1 sequence (Q04609 whole entry): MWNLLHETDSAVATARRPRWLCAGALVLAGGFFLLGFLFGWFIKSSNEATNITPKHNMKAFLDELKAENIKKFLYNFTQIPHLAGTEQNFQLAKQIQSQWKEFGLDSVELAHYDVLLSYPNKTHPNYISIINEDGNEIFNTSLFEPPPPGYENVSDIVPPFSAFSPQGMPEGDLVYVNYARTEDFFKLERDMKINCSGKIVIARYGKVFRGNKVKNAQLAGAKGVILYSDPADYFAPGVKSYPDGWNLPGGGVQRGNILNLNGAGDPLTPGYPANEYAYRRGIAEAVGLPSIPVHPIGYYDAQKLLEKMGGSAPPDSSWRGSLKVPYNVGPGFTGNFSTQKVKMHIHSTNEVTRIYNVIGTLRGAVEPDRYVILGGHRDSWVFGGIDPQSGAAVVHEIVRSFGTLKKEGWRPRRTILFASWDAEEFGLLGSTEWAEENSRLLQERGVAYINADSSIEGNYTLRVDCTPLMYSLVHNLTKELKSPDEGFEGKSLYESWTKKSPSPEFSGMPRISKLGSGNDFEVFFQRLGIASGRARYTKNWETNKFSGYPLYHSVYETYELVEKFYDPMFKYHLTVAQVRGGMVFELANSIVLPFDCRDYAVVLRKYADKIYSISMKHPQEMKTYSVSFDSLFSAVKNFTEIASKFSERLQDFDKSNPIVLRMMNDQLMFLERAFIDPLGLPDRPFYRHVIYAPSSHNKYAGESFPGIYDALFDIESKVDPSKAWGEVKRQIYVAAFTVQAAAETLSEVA
Experimental: (§1) Immunofluorescence detection was performed on KHL peptides in Lncap cell lines with high PSMA expression and PC3 cell lines with low PSMA expression, using FITC as the fluorescent marker. The fluorescence detection of KHL peptide and Lncap cell line is shown in FIG. 1, and the fluorescence detection of KHL peptide and PC3 cell line is shown in FIG. 2.

[2] = system: PC3 cell lines with low PSMA expression; experiment: Immunofluorescence detection of KHL peptide (FITC marker) on PC3 cell line; type: binding; conditions: FIG. 2
Experimental: as §1

PSMA, sequence (Q04609 whole entry, species assumed): as the sequence (Q04609 whole entry) above

binding to PSMA found by peptide library screening (PSMA): specifically binding to PSMA
specificity of binding of KHL to the cell surface antigen PSMA ([1]; Lncap (high PSMA) versus PC3 (low PSMA)): high specificity
Sequence: KHLHYHSSVRYG (also: FITC label, attachment site not given here) [FITC used as the fluorescent marker in immunofluorescence]
cell surface fluorescence labeled by KHL ([1]; Lncap cell lines with high PSMA expression, FITC, FIG. 1): fluorescence displayed by KHL binding to the cell surface antigen PSMA
cell surface fluorescence labeled by KHL [2]: only staining of the nucleus
